Assay results published in article PMC5131957, “p53 Specifically Binds Triplex DNA In Vitro and in Cells”.

B1: T.A.T triplex, biotinylated (structured_DNA)
DNA 1: TTTTTTTTTTTTTTTTTTTTTTTTTTTTTTTTTTTTTTTTTTTTTTTTTT
DNA 2: AAAAAAAAAAAAAAAAAAAAAAAAAAAAAAAAAAAAAAAAAAAAAAAAAA
DNA 3: TTTTTTTTTTTTTTTTTTTTTTTTTTTTTTTTTTTTTTTTTTTTTTTTTT
B2: CON, biotinylated (dsDNA)
DNA 1: GACGGTATCGATAAGAGACATGCCTAGACATGCCTCTTGATATCGAATTC
DNA 2: GAATTCGATATCAAGAGGCATGTCTAGGCATGTCTCTTATCGATACCGTC

Columns and labels:
[1] = target: p53 full length (human, UniProt P04637 1-393); assay: ELISA; DO1 antibody; 2 mM Mg2+; EMSA: 5 mM Tris-HCl pH 8, 1 mM MgCl2, 0.01% Triton X-100, 50 mM KCl, on ice or 25 C, 30 min, pBSK/SmaI competitor 5-50 ng; ELISA: 1x PBS, 2 mM MgCl2, temperature not stated; conditions: protein: recombinant, chain copies: 4
Sequence of p53 full length (P04637 whole entry, the tested form may be a part): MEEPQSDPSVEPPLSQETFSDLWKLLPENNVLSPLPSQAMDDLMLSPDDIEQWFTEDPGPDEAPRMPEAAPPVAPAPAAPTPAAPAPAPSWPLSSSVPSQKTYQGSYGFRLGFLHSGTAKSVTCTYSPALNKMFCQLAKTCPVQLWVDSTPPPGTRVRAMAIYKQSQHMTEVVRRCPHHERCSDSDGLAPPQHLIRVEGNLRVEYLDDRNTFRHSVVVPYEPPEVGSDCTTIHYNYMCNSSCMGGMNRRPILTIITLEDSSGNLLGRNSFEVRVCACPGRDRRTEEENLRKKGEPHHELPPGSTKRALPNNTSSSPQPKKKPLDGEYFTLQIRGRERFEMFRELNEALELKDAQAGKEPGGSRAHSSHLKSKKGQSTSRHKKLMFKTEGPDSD

[2] = target: p53CT (C-terminal segment: tetramerization domain + CTDBD) (human, UniProt P04637 320-393); assay: ELISA; 2 mM Mg2+; EMSA: 5 mM Tris-HCl pH 8, 1 mM MgCl2, 0.01% Triton X-100, 50 mM KCl, on ice or 25 C, 30 min, pBSK/SmaI competitor 5-50 ng; ELISA: 1x PBS, 2 mM MgCl2, temperature not stated; conditions: protein: recombinant; tags: GST (with or without); chain copies: 4; label: 3' biotin on (dA)50; intermolecular triplex, 2 x (dT)50 + 1 x (dA)50
Sequence of p53CT (C-terminal segment: tetramerization domain + CTDBD) (P04637 320-393): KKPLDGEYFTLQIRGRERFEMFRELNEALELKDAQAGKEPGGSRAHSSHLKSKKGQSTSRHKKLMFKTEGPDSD

[3] = target: p53T (last 30 aa, CTDBD) (human, UniProt P04637 363-393); assay: as above; conditions: protein: recombinant; tags: GST (with or without); label: 3' biotin on (dA)50; intermolecular triplex, 2 x (dT)50 + 1 x (dA)50
Sequence of p53T (last 30 aa, CTDBD) (P04637 363-393): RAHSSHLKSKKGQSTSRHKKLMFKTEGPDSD

| Binder | Kd ([1]; label: 3' biotin on (dA)50, intermolecular triplex, 2 x (dT)50 + 1 x (dA)50) [nM] | Kd [2] [nM] | Kd [3] [nM] | Kd ([1]; label: 3' biotin on strand 1, blunt) [nM] |
| --- | --- | --- | --- | --- |
| B1 | 0.75 ± 0.07 | 1.88 ± 0.3 | 10.4 ± 0.84 | – |
| B2 | – | – | – | 0.58 ± 0.05 |
